B1: Protein Rep68 (Adeno-associated virus 2 (isolate Srivastava/1982)), P03132 (parent)
chain: MPGFYEIVIKVPSDLDGHLPGISDSFVNWVAEKEWELPPDSDMDLNLIEQAPLTVAEKLQRDFLTEWRRVSKAPEALFFVQFEKGESYFHMHVLVETTGVKSMVLGRFLSQIREKLIQRIYRGIEPTLPNWFAVTKTRNGAGGGNKVVDECYIPNYLLPKTQPELQWAWTNMEQYLSACLNLTERKRLVAQHLTHVSQTQEQNKENQNPNSDAPVIRSKTSARYMELVGWLVDKGITSEKQWIQEDQASYISFNAASNSRSQIKAALDNAGKIMSLTKTAPDYLVGQQPVEDISSNRIYKILELNGYDPQYAASVFLGWATKKFGKRNTIWLFGPATTGKTNIAEAIAHTVPFYGCVNWTNENFPFNDCVDKMVIWWEEGKMTAKVVESAKAILGGSKVRVDQKCKSSAQIDPTPVIVTSNTNMCAVIDGNSTTFEHQQPLQDRMFKFELTRRLDHDFGKVTKQEVKDFFRWAKDHVVEVEHEFYVKKGGAKKRPAPSDADISEPKRVRESVAQPSTSDAEASINYADRLARGHSL
partner: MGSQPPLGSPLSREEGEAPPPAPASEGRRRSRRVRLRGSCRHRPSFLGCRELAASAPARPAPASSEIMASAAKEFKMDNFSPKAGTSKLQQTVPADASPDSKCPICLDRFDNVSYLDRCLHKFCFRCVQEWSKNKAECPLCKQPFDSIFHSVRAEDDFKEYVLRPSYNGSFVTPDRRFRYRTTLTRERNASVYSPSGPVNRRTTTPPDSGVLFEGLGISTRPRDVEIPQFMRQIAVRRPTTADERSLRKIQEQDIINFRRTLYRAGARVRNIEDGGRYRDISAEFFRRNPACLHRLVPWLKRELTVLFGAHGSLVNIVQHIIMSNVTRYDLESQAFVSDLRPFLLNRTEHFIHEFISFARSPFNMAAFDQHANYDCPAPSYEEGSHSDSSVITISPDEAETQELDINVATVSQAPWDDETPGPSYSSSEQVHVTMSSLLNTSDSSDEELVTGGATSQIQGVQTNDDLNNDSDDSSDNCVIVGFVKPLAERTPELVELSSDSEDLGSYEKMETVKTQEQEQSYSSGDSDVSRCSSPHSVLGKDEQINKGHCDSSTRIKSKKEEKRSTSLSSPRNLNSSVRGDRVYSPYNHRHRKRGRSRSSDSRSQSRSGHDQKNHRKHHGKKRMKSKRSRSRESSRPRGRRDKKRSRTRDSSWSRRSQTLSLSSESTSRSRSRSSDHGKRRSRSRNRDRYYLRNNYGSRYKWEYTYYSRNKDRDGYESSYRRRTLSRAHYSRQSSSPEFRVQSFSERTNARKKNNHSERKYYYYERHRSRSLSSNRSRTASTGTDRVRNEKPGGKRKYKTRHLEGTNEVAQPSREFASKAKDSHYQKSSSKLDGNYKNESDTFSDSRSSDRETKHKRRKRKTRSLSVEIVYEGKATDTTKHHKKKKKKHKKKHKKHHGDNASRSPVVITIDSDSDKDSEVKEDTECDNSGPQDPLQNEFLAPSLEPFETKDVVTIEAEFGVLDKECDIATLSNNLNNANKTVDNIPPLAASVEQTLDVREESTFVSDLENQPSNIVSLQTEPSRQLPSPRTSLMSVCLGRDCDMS

Variants of: B1
Conditions: with toprs_human TOPORS

Variant | effect of a mutation on the interaction
MPGFYEIVIKVPSDLDGHLPGISDSFVNWVAEKEWELPPDSDMDLNLIEQAPLTVAEKLQRDFLTEWRRVSKAPEALFFVQFEKGESYFHMHVLVETTGVKSMVLGRFLSQIREKLIQRIYRGIEPTLPNWFAVTKTRNGAGGGNKVVDECYIPNYLLPKTQPELQWAWTNMEQYLSACLNLTERKRLVAQHLTHVSQTQEQNKENQNPNSDAPVIRSKTSARYMELVGWLVDKGITSEKQWIQEDQASYISFNAASNSRSQIKAALDNAGKIMSLTKTAPDYLVGQQPVEDISSNRIYKILELNGYDPQYAASVFLGWATKKFGKRNTIWLFGPATTGHTNIAEAIAHTVPFYGCVNWTNENFPFNDCVDKMVIWWEEGKMTAKVVESAKAILGGSKVRVDQKCKSSAQIDPTPVIVTSNTNMCAVIDGNSTTFEHQQPLQDRMFKFELTRRLDHDFGKVTKQEVKDFFRWAKDHVVEVEHEFYVKKGGAKKRPAPSDADISEPKRVRESVAQPSTSDAEASINYADRLARGHSL [K340H] | increasing interaction
